Residue numbers refer to the chain shown, from its start. Numbers in names are those of the source.
B1: anti-CTLA-4 antibody heavy chain A61C (antibody, human IgG1, kappa, V domains shown)
VH: QVQLVESGGGVVQPGRSLRLSCAASGFTFSSYTMHWVRQAPGKGLEWVTFISYDGNNKYYCDSVKGRFTISRDNSKNTLYLQMNSLRAEDTAIYYCARTGWLGPFDYWGQGTLVTVSS
VL: not shown
B2: anti-CTLA-4 antibody heavy chain S31C (antibody, human IgG1, kappa, V domains shown)
VH: B1 VH with S31C, C61A
VL: not shown
B3: anti-CTLA-4 antibody heavy chain S30C (antibody, human IgG1, kappa, V domains shown)
VH: B1 VH with S30C, C61A
VL: not shown
B4: anti-CTLA-4 antibody heavy chain S63C (antibody, human IgG1, kappa, V domains shown)
VH: B1 VH with C61A, S63C
VL: not shown
B5: anti-CTLA-4 antibody heavy chain G66C (antibody, human IgG1, kappa, V domains shown)
VH: B1 VH with C61A, G66C
VL: not shown
B6: anti-CTLA-4 antibody heavy chain G55C (antibody, human IgG1, kappa, V domains shown)
VH: B1 VH with G55C, C61A
VL: not shown
B7: anti-CTLA-4 antibody heavy chain L102C (antibody, human IgG1, kappa, V domains shown)
VH: B1 VH with C61A, L102C
VL: not shown
B8: anti-CTLA-4 antibody heavy chain T33C (antibody, human IgG1, kappa, V domains shown)
VH: B1 VH with T33C, C61A
VL: not shown
B9: anti-CTLA-4 antibody light chain S94C (antibody, human IgG1, kappa, V domains shown)
VH: B1 VH with C61A
VL: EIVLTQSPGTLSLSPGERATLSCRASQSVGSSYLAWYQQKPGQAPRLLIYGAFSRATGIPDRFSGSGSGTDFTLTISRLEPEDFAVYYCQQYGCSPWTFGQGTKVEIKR
B10: anti-CTLA-4 antibody light chain T57C (antibody, human IgG1, kappa, V domains shown)
VH: B1 VH with C61A
VL: not shown
B11: anti-CTLA-4 antibody light chain S54C (antibody, human IgG1, kappa, V domains shown)
VH: B1 VH with C61A
VL: not shown
B12: anti-CTLA-4 antibody light chain S95C (antibody, human IgG1, kappa, V domains shown)
VH: B1 VH with C61A
VL: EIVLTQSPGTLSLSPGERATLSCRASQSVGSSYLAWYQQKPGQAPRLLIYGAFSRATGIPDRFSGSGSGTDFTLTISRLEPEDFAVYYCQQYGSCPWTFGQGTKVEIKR
B13: anti-CTLA-4 antibody light chain S54C-R4-1 (antibody, human IgG1, kappa, V domains shown)
VH: B1 VH with C61A
VL: not shown
modifications: R4-1 on Cys 54
B14: anti-CTLA-4 antibody light chain G30C-R4-1 (antibody, human IgG1, kappa, V domains shown)
VH: B1 VH with C61A
VL: not shown
modifications: R4-1 on Cys 30
B15: anti-CTLA-4 antibody light chain T98C-R4-1 (antibody, human IgG1, kappa, V domains shown)
VH: B1 VH with C61A
VL: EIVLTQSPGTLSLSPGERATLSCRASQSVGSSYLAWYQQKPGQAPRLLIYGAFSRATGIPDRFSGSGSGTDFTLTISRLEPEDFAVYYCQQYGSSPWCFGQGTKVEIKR
modifications: R4-1 on Cys 98
B16: anti-CTLA-4 antibody light chain G58C-R4-1 (antibody, human IgG1, kappa, V domains shown)
VH: B1 VH with C61A
VL: not shown
modifications: R4-1 on Cys 58
B17: anti-CTLA-4 antibody light chain G93C-R4-1 (antibody, human IgG1, kappa, V domains shown)
VH: B1 VH with C61A
VL: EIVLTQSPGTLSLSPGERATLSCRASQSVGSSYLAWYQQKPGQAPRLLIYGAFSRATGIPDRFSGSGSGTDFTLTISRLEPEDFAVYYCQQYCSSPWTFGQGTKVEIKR
modifications: R4-1 on Cys 93
B18: anti-CTLA-4 antibody light chain A35C-R4-1 (antibody, human IgG1, kappa, V domains shown)
VH: B1 VH with C61A
VL: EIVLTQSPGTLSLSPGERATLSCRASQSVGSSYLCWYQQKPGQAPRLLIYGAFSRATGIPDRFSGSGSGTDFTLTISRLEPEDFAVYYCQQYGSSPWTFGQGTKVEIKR
modifications: R4-1 on Cys 35
B19: anti-CTLA-4 antibody light chain S31C-R4-1 (antibody, human IgG1, kappa, V domains shown)
VH: B1 VH with C61A
VL: not shown
modifications: R4-1 on Cys 31
B20: anti-CTLA-4 antibody light chain S95C-R4-1 (antibody, human IgG1, kappa, V domains shown)
VH: B1 VH with C61A
VL: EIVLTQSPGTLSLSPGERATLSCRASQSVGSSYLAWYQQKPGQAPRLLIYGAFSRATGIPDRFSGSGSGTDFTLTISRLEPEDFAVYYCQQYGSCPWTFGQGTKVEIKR
modifications: R4-1 on Cys 95
B21: anti-CTLA-4 antibody light chain S32C-R4-1 (antibody, human IgG1, kappa, V domains shown)
VH: B1 VH with C61A
VL: not shown
modifications: R4-1 on Cys 32
B22: anti-PD-1 antibody 2 heavy chain K57C (antibody, human IgG4 S228P, kappa, V domains shown)
VH: QVQLVESGGGVVQPGRSLRLDCKASGITFSNSGMHWVRQAPGKGLEWVAVIWYDGSCRYYADSVKGRFTISRDNSKNTLFLQMNSLRAEDTAVYYCATNDDYWGQGTLVTVSS
VL: EIVLTQSPATLSLSPGERATLSCRASQSVSSYLAWYQQKPGQAPRLLIYDASNRATGIPARFSGSGSGTDFTLTISSLEPEDFAVYYCQQSSNWPRTFGQGTKVEIKR
B23: anti-PD-1 antibody 2 heavy chain Y59C (antibody, human IgG4 S228P, kappa, V domains shown)
VH: B22 VH with C57K, Y59C
VL: B22 VL
B24: anti-PD-1 antibody 2 heavy chain Y53C (antibody, human IgG4 S228P, kappa, V domains shown)
VH: B22 VH with Y53C, C57K
VL: B22 VL
B25: anti-PD-1 antibody 2 heavy chain K65C (antibody, human IgG4 S228P, kappa, V domains shown)
VH: B22 VH with C57K, K65C
VL: B22 VL
B26: anti-PD-1 antibody 2 heavy chain Y60C (antibody, human IgG4 S228P, kappa, V domains shown)
VH: B22 VH with C57K, Y60C
VL: B22 VL
B27: anti-PD-1 antibody 2 heavy chain D62C (antibody, human IgG4 S228P, kappa, V domains shown)
VH: B22 VH with C57K, D62C
VL: B22 VL
B28: anti-PD-1 antibody 1 heavy chain K65C (antibody, human IgG4 S228P, kappa, V domains shown)
VH: QVQLVQSGVEVKKPGASVKVSCKASGYTFTNYYMYWVRQAPGQGLEWMGGINPSNGGTNFNEKFCNRVTLTTDSSTTTAYMELKSLQFDDTAVYYCARRDYRFDMGFDYWGQGTTVTVSS
VL: EIVLTQSPATLSLSPGERATLSCRASKGVSTSGYSYLHWYQQKPGQAPRLLIYLASYLESGVPARFSGSGSGTDFTLTISSLEPEDFAVYYCQHSRDLPLTFGGGTKVEIKR
B29: anti-PD-1 antibody 1 heavy chain Y32C (antibody, human IgG4 S228P, kappa, V domains shown)
VH: B28 VH with Y32C, C65K
VL: B28 VL
B30: Ipilimumab L54 Arg to Cys (antibody, V domains shown)
VH: B1 VH with C61A
VL: not shown
modifications: chain 2 pos 55 (Kabat L54): introduced Cys carries R4-26 (or S47, 40 kD PEG linker) on its thiol, written C
B31: Ipilimumab L32 Tyr to Cys (antibody, V domains shown)
VH: B1 VH with C61A
VL: not shown
modifications: chain 2 pos 33 (Kabat L32): introduced Cys carrying the conjugated group of the row (R4-7, R4-8 or S47), written C
B32: anti-PD-1 antibody 2 light chain A25C (antibody, human IgG4 S228P, kappa, V domains shown)
VH: B22 VH with C57K
VL: B22 VL with A25C
B33: anti-PD-1 antibody 2 light chain A51C (antibody, human IgG4 S228P, kappa, V domains shown)
VH: B22 VH with C57K
VL: B22 VL with A51C
B34: anti-PD-1 antibody 2 light chain A55C (antibody, human IgG4 S228P, kappa, V domains shown)
VH: B22 VH with C57K
VL: B22 VL with A55C
B35: anti-PD-1 antibody 2 light chain I58C (antibody, human IgG4 S228P, kappa, V domains shown)
VH: B22 VH with C57K
VL: B22 VL with I58C
B36: anti-PD-1 antibody 2 light chain A60C (antibody, human IgG4 S228P, kappa, V domains shown)
VH: B22 VH with C57K
VL: B22 VL with A60C
B37: anti-PD-1 antibody 1 light chain A55C (antibody, human IgG4 S228P, kappa, V domains shown)
VH: B28 VH with C65K
VL: B28 VL with A55C
B38: anti-PD-1 antibody 1 light chain L37C (antibody, human IgG4 S228P, kappa, V domains shown)
VH: B28 VH with C65K
VL: B28 VL with L37C
B39: anti-PD-1 antibody 1 light chain L54C (antibody, human IgG4 S228P, kappa, V domains shown)
VH: B28 VH with C65K
VL: B28 VL with L54C
B40: anti-PD-1 antibody 1 light chain T101C (antibody, human IgG4 S228P, kappa, V domains shown)
VH: B28 VH with C65K
VL: B28 VL with T101C
B41: anti-PD-1 antibody 1 light chain A25C (antibody, human IgG4 S228P, kappa, V domains shown)
VH: B28 VH with C65K
VL: B28 VL with A25C
B42: anti-PD-1 antibody 1 light chain T31C (antibody, human IgG4 S228P, kappa, V domains shown)
VH: B28 VH with C65K
VL: B28 VL with T31C

Target: T1, CTLA-4 (UniProt P16410 36-162, limits assumed)
Assay: ELISA, OD mutant/OD WT; A=90-110%
T1 sequence (P16410 36-162 limits assumed): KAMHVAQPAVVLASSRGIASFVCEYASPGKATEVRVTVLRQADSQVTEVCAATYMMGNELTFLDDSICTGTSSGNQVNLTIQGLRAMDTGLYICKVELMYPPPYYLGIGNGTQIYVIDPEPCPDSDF

Row | binding activity (OD after mutation/OD wild type) [%] | Binder
1 | 90 to 110 | B1
2 | 90 to 110 | B2
3 | 90 to 110 | B3
4 | 90 to 110 | B4
5 | 90 to 110 | B5
6 | 90 to 110 | B6
7 | 90 to 110 | B7
8 | 90 to 110 | B8

Target: T1, CTLA-4
Assay: ELISA, OD mutant/OD WT; A=90-110%
Remark: another data set of the same source

Row | binding activity (OD after mutation/OD wild type) [%] | Binder
9 | 90 to 110 | B9
10 | 90 to 110 | B10
11 | 90 to 110 | B11
12 | 90 to 110 | B12

Target: T1, CTLA-4
Assay: ELISA, conjugate vs WT antibody

Row | binding activity (% of WT) [%] | Binder
13 | 97.7 | B13
14 | 95.3 | B14
15 | 91 | B15
16 | 88.1 | B16
17 | 99.1 | B17
18 | 91.5 | B18
19 | 80.9 | B19
20 | 95.4 | B20
21 | 99 | B21

Target: T2, PD-1 (UniProt Q15116 25-167, limits assumed)
T2 sequence (Q15116 25-167 limits assumed): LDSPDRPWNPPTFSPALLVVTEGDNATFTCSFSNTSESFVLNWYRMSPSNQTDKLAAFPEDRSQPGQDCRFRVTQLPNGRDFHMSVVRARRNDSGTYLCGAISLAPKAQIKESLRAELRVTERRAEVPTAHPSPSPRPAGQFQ
Assay: ELISA, OD mutant/OD WT; ↓=less than 70%

Row | binding activity vs wild type [%] | Binder
22 | < 70 | B22
23 | < 70 | B23
24 | < 70 | B24
25 | < 70 | B25
26 | < 70 | B26
27 | < 70 | B27
28 | < 70 | B28
29 | < 70 | B29

Target: T3, CTLA-4 (UniProt P16410 36-162, limits assumed)
T3 construct: also called CTLA-4 protein
Assay: ELISA; S47 on the Cys
T3 sequence (P16410 36-162 limits assumed): as the sequence (P16410 36-162 limits assumed) above

Row | Activity after S47 (40 kD) blocking [%] | Binder
30 | 17 | B30
31 | 13 | B31

Target: T2, PD-1
Assay: ELISA, OD mutant/OD WT; B=70-90%

Row | binding activity (OD after mutation/OD wild type) [%] | Binder
32 | 70 to 90 | B32
33 | 70 to 90 | B33
34 | 70 to 90 | B34
35 | 70 to 90 | B35
36 | 70 to 90 | B36
37 | 70 to 90 | B37
38 | 70 to 90 | B38
39 | 70 to 90 | B39
40 | 70 to 90 | B40
41 | 70 to 90 | B41
42 | 70 to 90 | B42
